In US20230111279A1:
Residue numbers refer to the chain shown, from its start.

B1: anti-Clec12A antibody A (antibody, V domains shown)
VH: QVQLQESGPGLVKPSETLSLTCTVSGGSISTYYWSWIRQPPGKGLEWIGYIYYSGSTKYNPSLKSRVTISVDTSKNLFSLKLSSVTAADTAVYYCAREDYYGSGSPFDYWGQGTLVTVSS
VL: IQMTQSPSSLSASVGDRVTITCRASQGIRYDLGWYQQKPGKAPKLLIYAASSLQSGVPSRFSGSGSGTDFTLTISSLQPEDFATYYCLQDYNFPRTFGQGTKVEIK
B2: anti-Clec12A antibody B (antibody, V domains shown)
VH: QVQLVESGGGVVQPGRSLRLSCAASGFTFSSYGMHWVRQAPGKGLEWVAVISYDGSDKYYVDSVKGRFTISRDNSKNTLYLHMNSLRAEDTAVYYCARDKGYYFDYWGQGTLVTVSS
VL: EIVMTQSPATLSLSPGERATLSCRASQSVGNRYLSWYQQKPGQAPRLLIYGASTRATGIPARFSGSGSGTDFTLTISSLQPEDFAVYYCQQDYNLPLTFGGGTKVEIK
B3: anti-Clec12A antibody C (antibody, V domains shown)
VH: B2 VH with Y60S, V61A, T69N, H82Q, K100G, G101S, Y102R
VL: B2 VL with V3F, G30H, N31S, R32K, R46S, L97I, G101Q, K104R, V105L

Biological target: Clec12A on cells (Clec12A over-expressing CHO-S cells; U937 cells endogenously expressing Clec12A) (UniProt Q5QGZ9)
Sequence (Q5QGZ9 whole entry): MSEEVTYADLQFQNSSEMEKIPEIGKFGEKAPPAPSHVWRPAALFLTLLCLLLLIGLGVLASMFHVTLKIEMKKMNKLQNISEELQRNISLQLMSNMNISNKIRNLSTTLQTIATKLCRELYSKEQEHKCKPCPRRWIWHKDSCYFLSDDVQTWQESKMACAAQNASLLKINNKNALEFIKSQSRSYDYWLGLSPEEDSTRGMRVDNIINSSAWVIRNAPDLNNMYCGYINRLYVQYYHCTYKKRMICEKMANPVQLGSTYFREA
Experiment: flow cytometry, serial dilution, on U937 cells endogenously expressing Clec12A

Going from B1 to B2, the EC50 rises from 0.621 nM to 3.36 nM (5.4-fold).

Binder B3 has an EC50 of 3.35 nM.
